In one assay the test system is Mdm2. Put plainly: Pulse-chase half-life of Mdm2 wt or S218A in normal human fibroblasts. The format is cell-based. How it is done: FIG. 16A-16F. A. Activation of p38 increases Mdm2 ubiquitination in vivo. EJ cells were transfected with indicated plasmids. 36 h after transfection cells were harvested and Mdm2 was immunoprecipitated (2A10 antibodies). […] Middle panels show expression levels of Mdm2 and p19^ARF. Lower panels depict phospho-and total p38 levels. B. Mutation at Ser218 of Mdm2 abolishes p38 induced Mdm2 ubiquitination. Normal human fibroblasts were transfected with indicated plasmids. 36 h after transfection cells were harvested and lysed. Mdm2 was immunoprecipitated and proteins were separated on a 8% SDS-PAGE. […] C. Mutation at Ser218 of Mdm2 abrogates p19^ARF-induced Mdm2 degradation. […] Upper panels depict Mdm2-Sumo conjugates (detected via Sumo-1 anitbodies), as well as the 75 kD and 90 kD forms of Mdm2 (detected via Mdm2 antibodies). […] To monitor possible changes in amount of p19 bound to Mdm2 association was monitored using normalized Mdm2 levels at the indicated time-points after UV-treatment.
Normal human fibroblasts (NHF) were transfected with wt or S218A forms of Mdm2 expression vectors (4 μg). ^35S-methionine (1 mCi) was added to the cell cultures 24 h after transfection for 5 h (pulse) followed by chase (2 mM cold methionine) for the indicated time points. […] Immunoprecipated Mdm2 was washed, separated on 10% SDS-PAGE, and analyzed by autoradiography.

Assay [1] deals with T1, GST-Mdm2 (Homo sapiens, UniProt Q00987).
T1 construct: made in house
T1 sequence (Q00987 whole entry): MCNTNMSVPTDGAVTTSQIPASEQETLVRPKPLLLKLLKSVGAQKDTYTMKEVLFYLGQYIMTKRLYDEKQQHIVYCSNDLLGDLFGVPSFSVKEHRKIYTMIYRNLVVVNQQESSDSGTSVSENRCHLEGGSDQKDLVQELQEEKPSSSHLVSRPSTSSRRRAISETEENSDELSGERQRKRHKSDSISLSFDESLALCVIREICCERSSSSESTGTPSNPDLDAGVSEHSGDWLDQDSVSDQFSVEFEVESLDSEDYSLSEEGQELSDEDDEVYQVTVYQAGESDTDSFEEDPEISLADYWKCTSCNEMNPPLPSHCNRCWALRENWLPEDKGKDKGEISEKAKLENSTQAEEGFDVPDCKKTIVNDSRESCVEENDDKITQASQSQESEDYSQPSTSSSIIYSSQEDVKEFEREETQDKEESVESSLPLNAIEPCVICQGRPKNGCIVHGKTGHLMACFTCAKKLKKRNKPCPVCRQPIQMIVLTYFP
The assay is described as follows: In vitro ubiquitination of GST-Mdm2 (self-ubiquitination). The format is biochemical. The conditions noted are these: bacculovirus-purified p19ARF added to GST-Mdm2.
Text: GST-Mdm2 was subjected to an in vitro ubiquitination reaction using purified forms of E1, E2 and Ub-HA in the presence of ATP. […] Glutathione bead-coupled GST-Mdm2 in its ubiquitinated or non-ubiquitinated forms was washed and analyzed on immunoblots using antibodies to HA (upper panel). Middle panel depicts the level of Mdm2 expression and the lower panel, the level of p19^ARF added to the reaction.

Assay [2] deals with T1, GST-Mdm2. The assay is described as follows: In vitro conjugation of SUMO-1 to GST-Mdm2 (in vitro sumoylation). The format is biochemical.
Experimental: A. Time dependent Mdm2 sumoylation in vitro. Bacterially expressed and purified GST-Mdm2 was subjected to in vitro sumoylation reaction in the presence of E1, Ubc9, and ^35S-Sumos. Reaction was terminated after 10,30,50 or 60 minutes, Proteins were separated on 8% gel, Commassie stained, dryed and exposed overnight (upper panel). Lower panel depicts Commassie blue staining of Mdm2 forms. […] (Upper part) The specific Ubc-9-binding site peptide or a nonspecific peptide was added to the reaction for the indicated time periods. […] The lower panel depicts a Coomassie staining visualizing relative amounts of sumoylated and non-sumoylated forms of purified GST-Mdm2. C. The Mdm2 sumoylation assay was carried out in the presence of Ubc-9-binding site peptide (mu9bs) or a nonspecific peptide (mu9bs) which were added to the reaction at the indicated concentrations. […] Mdm2/p53 double null cells were transfected with Flag-tagged Mdm2, HA-tagged Sumo-1 and increasing amounts of the specific or nonspecific Ubc-9-peptides, respectively. Cells were harvested 36 h later and 500 μg of protein was immunoprecipitated using Mdm2 antibodies (2A10). Immunoprecipitated Mdm2 levels were detected using 2A10 antibodies (top). The same membrane was stripped and reprobed using monoclonal antibodies against Sumo-1 (Zymed, middle) to visualize the level of Sumo-1 conjugation to Mdm2 after Ubc-9-peptide expression.
A. Bacterially expressed and purified Mdm2 (1 μg) was incubated with ^32P-labeled Sumo-1, purified Aos1/Uba2 and Ubc9 (0.5 μg) for 60 min at 37° C. in conjugation buffer. For indicated time-periods in vitro translated wt or mutant p19^ARF (0.5 mg) was added to the sumoylation reactions. Upper panel depicts the amount of Sumoylated Mdm2, lower panel reveal the level of Mdm2 and Sumo-Mdm2 in Coomassie blue gel. B. Bacterially expressed and purified Mdm2 (1 μg) was incubated with in vitro-translated ^35S-Sumo, purified Aos1/Uba2 and Ubc9 (0.5 μg) for 60 min at 37° C. in conjugation buffer in the presence of the increasing amounts of bacculovirus-expressed p19^ARF (0, 0.1, 0.5, 1 μg; lanes 1-4 respectively). Bead-bound complexes were washed before being denatured in 3× Sample Buffer. Proteins were separated on 8% SDS-PAGE. Gel was stained with Coomassie blue to verify equal Mdm2 input (lower panel), dried and exposed to X-ray film, which depicts SUMO-1 conjugation to Mdm2 in the presence of the indicated p19 forms (upper panel). […] Double-null cells were transfected with Flag-tagged Mdm2 (1.5 μg), HA-tagged SUMO (1.5 μg) and p19 wt (1.5 μg). Cells were treated with MG132 (40 mM) for 5 h prior to protein preparation. […] (Left) Immunoprecipitated Mdm2 was detected using monoclonal Mdm2 antibodies (2A10, left). […]
In a further assay the target is T2, Ubc9 binding to Mdm2 (Homo sapiens, UniProt Q00987).
T2 construct: made in house; host or cells: GST-Mdm2: bacteria; Ubc9: in vitro translation
T2 sequence (Q00987 whole entry): as above
The assay is described as follows: In vitro binding of Ubc9 to GST-Mdm2. The settings on record: in vitro translated p19ARF and Ubc9, GST-Mdm2 1 μg. As for the experimental part:
FIGS. 17A and 17B. A. p19^ARF decreases Ubc9 binding to Mdm2. Bacterially expressed and purified GST-Mdm2 (1 μg) was incubated with ^35S-labeled in vitro translated p19^ARF and Ubc9 at the indicated ratios. After 30 min of incubation GSH beads bound-GST-Mdm2 were washed and separated on a 12% SDS-PAGE. Gel was dried and subjected to autoradiograph, depicting relative amounts of Ubc9 and p19^ARF bound to Mdm2. B. Bacterially expressed and purified GST-Mdm2 (1 μg) was phosphorylated by purified form of active p38 kinase as indicated. Phosphorylated or un-phosphorylated Mdm2 was incubated for 30 min with in vitro translated UbcH5b and Ubc9 (25 μl). Beads were washed and separated on a 12% SDS-PAGE. Gel was dried and exposed to X-ray film. Position of Ubc9 and UbcH5b is shown.
A prerequisite for Mdm2 sumoylation is the association of Ubc9, the SUMO conjugating enzyme, with Mdm2, which enables subsequent conjugation of SUMO-1 to Mdm2. Inhibition of Ubc9's association with Mdm2 attenuates Mdm2 sumoylation. Given the effect of p19^ARF on Mdm2 sumoylation, we proceeded to determine whether p19^ARF may alter Ubc9 binding to Mdm2. To this end we performed an in vitro binding assay, using in vitro translated p19^ARF and Ubc-9, as indicated. […] We next assessed possible changes in Ubc9 binding to Mdm2 upon its phosphorylation by p38.

B1: p19^ARF: Mdm2-regulating protein; in vitro translated, bacculovirus-expressed or transfected (protein)
chain: MGRRFLVTVRIQRAGRPLQERVFLVKFVRSRRPRTASCALAFVNMLLRLERILRRGPHRNPGPGDDDGQRSRSSSSAQLRCRFELRGPHYLLPPGARRSAGRLPGHAGGAARVRGSAGCARCLGSPAARLGPRAGTSRHRAIFAFRWVLFVFRWVVFVYRWERRPDRRA
As for B1, the “effect on half-life of Mdm2 S218A mutant” value in the assay with Mdm2 was “minimal effects”. In the assay with GST-Mdm2 [1], the “Mdm2 ubiquitination in vitro” value was “efficient inhibition of Mdm2 ubiquitination in vitro”. In addition, in the assay with GST-Mdm2 [2] (0, 0.1, 0.5, 1 μg bacculovirus-expressed p19ARF), the “in vitro sumoylation of Mdm2 with p19ARF purified from insect cells” value is recorded as “inhibited in a dose-dependent manner”. Further, the “GST-Mdm2 sumoylation in vitro with in vitro-translated p19 forms” value in the assay with GST-Mdm2 [2] (in vitro-translated wt or mutant p19ARF) is reported as “efficient inhibition of GST-Mdm2 sumoylation in vitro”. Further, in the assay with Ubc9 binding to Mdm2, the “Ubc9 binding to Mdm2 in presence of increasing amounts of p19ARF” value is listed as “dose dependent decrease in Ubc9 binding to Mdm2”.

The record behind these values is patent US20020031818A1, “Modification of Mdm2 activity” (priority 2000, published 2002).
